Reference: the supplement of paper PMC10567573
± gives the standard deviation.

Assay: protein stability index of a GFP-peptide fusion (GPS, HEK-293T) (PSI 1-6); higher = more stable
[1] = treatment: DMSO, c terminus: a fixed tail appended
[2] = treatment: MLN4924 1 uM, 8 h, c terminus: a fixed tail appended
[3] = treatment: DMSO, c terminus: native
[4] = treatment: MLN4924 1 uM, 8 h, c terminus: native
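Also: 24-mer peptide tiles fused after GFP, lentivirally expressed, FACS-sorted into six equal bins by GFP/DsRed ratio, decoded by Illumina sequencing, PSI is the read-weighted mean bin number.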

Sequence | protein stability index [1] | protein stability index [2] | protein stability index [3] | protein stability index [4]
VKDALFCSCLSDILRFIYSGAFQW [RHOBTB3] | 2.79 ± 0.36 | 3.31 ± 0.48 | – | –
MIHRTRKQKYFYKGGLVWDENSSD [CLK3] | 3.06 ± 0.22 | 3.06 ± 0.23 | – | –
KGGQDVKKKVHLSEKIHPFIRKSI [PRIM1] | 3.85 ± 0.53 | 3.59 ± 0.48 | – | –
ENFEDVGHSTDAREMSKTFIIGEL [CYB5A] | 3.95 ± 0.4 | 3.89 ± 0.29 | – | –
TPYPNLYPDQSPSEDWTMEERFRP [CLCN6] | 3.85 ± 0.26 | 4.07 ± 0.15 | – | –
SDTIYSYVRPERLSPISHGNTIAL [TCF25] | 2.37 ± 0.22 | 2.56 ± 0.31 | – | –
TLRLRENCVLSSSPNPFPEISRGE [ZNF8] | 3.61 ± 0.33 | 3.66 ± 0.33 | – | –
PPASPPADGSPPLLPPGEPPLLGT [ANKRD40] | 5.17 ± 0.26 | 5.42 ± 0.14 | – | –
KRLKHKDDSVMKATQQARKRNFIS [C22orf31] | 4.11 ± 0.27 | 4.19 ± 0.23 | – | –
FPACRVSVTGLDPEARYLFLLDVI [TBX6] | 2.56 ± 0.53 | 2.09 ± 0.24 | – | –
YQLCRVQECPPDGRSFREEQCVSF [ADAMTSL2] | 2.92 ± 0.65 | 2.97 ± 0.32 | – | –
RTELVEQAFRAIDRADYYLEEFKE [PCMTD2] | 4.1 ± 0.12 | 4.12 ± 0.19 | – | –
CPVWDIFDSDWYTSRNLIGGADII [RHOBTB3] | 3.26 ± 0.5 | 3.55 ± 0.26 | – | –
FGAWRCLLDATVAGGQTRLQASDR [FCHSD1] | 2.36 ± 0.27 | 2.48 ± 0.34 | – | –
AMLDEISLMDLAIEEGFNPVQASQ [NFE2L1] | 3.53 ± 0.39 | 3.66 ± 0.2 | – | –
NGERESGLRSLRLFQKLEENGDLY [WDR41] | 3.29 ± 0.12 | 3.52 ± 0.23 | – | –
QSEERKRIDELIESGKEEGMKIDL [KMT5A] | 5.583 ± 0.004 | 5.5 ± 0.13 | – | –
AVRKLKFARHIKKSEGQKIPKVEL [GULP1] | 3.1 ± 0.091 | 3.13 ± 0.21 | – | –
EQMKVYKCEHCRVLFLDHVMYTIH [IKZF1] | 2.37 ± 0.34 | 2.23 ± 0.41 | – | –
RELGRLRQQVTNHGRGTEVLLEEP [ZNF263] | 4.7 ± 0.39 | 4.58 ± 0.33 | – | –
LWDTSGQGRFCTIFRSYSRGAQGI [RAB40C] | 2.39 ± 0.41 | 2.31 ± 0.37 | – | –
GPGDEVARGIAGEKFDIVKKWGIN [ARFIP2] | 4 ± 0.17 | 4.2 ± 0.046 | – | –

Sequence | protein stability index [1] | protein stability index [2] | protein stability index [3] | protein stability index [4]
QSFGRLSLQPQQQQQRQRPPRPPP [N4BP2L1] | 4.64 ± 0.2 | 4.6 ± 0.32 | – | –
SKRLYGVYDNEKKLQLQLNETKSQ [PLD5] | 4.19 ± 0.27 | 4 ± 0.18 | – | –
PAATFGADDLVLTLSNPQMSLEGT [ELF3] | 4.24 ± 0.3 | 4.32 ± 0.23 | – | –
SLLPGAVEQPQPQFISRFLEGQSG [NEK8] | 3.5 ± 0.18 | 3.73 ± 0.16 | – | –
IGGLLGATFNCLNKRLAKYRMRNV [CLCN6] | 2.34 ± 0.2 | 2.2 ± 0.53 | – | –
MPSSTTQKDSYQPPGNVYWPLRGK [SPAG8] | 4.21 ± 0.28 | 4.22 ± 0.28 | – | –
TRVSQLGLQVEGLRRRLEELQQEL [LRRC45] | 4.36 ± 0.24 | 4.55 ± 0.46 | – | –
EAINFCRGLGSQASTVTEIVKQQD [ACSBG2] | 4.12 ± 0.11 | 4.11 ± 0.18 | – | –
VLLKTADPRYELPSRKYISTKAIP [ZBED1] | 2.19 ± 0.37 | 2.34 ± 0.62 | – | –
PAPQVGTQIRTITEEIRDGKVISS [KRT36] | 5.08 ± 0.2 | 5.17 ± 0.23 | – | –
TLSLKQTILDKEEKQRRNVAKNY [TTC32] | – | – | 4.27 ± 0.36 | 4.29 ± 0.54
SDPDCSMRPTLIDLLPTFRHTLQK [FBXO39] | 3.33 ± 0.27 | 3.45 ± 0.28 | – | –
QRPADVPEPGRAGYPAPRDEGVLR [HAGHL] | 4.85 ± 0.32 | 4.84 ± 0.15 | – | –
VYLHFLSVVTEDGPEPKDKGSLPQ [ZNF232] | 2.27 ± 0.18 | 2.35 ± 0.33 | – | –
LFEDIVAREYYSEADASHCIQQIL [CAMK2A] | 2.36 ± 0.069 | 2.62 ± 0.35 | – | –
SKYGIINLQSLKTPTLKVFMHENL [DCAF4] | 1.8 ± 0.43 | 2.03 ± 0.26 | – | –
IFAQGAPRSSLAESFFVDYEENEG [ADAMTSL2] | 4.05 ± 0.067 | 4.98 ± 0.26 | – | –
APGVLTNKRKTYTESYIARPDGDC [ZC2HC1A] | 4.27 ± 0.12 | 4.29 ± 0.3 | – | –
DRESLCGASTSCLLPVQVVTEHPL [PCDHGC5] | 4.16 ± 0.18 | 4.39 ± 0.27 | – | –
LHILARDVHNRIVIRGLNTIPLFV [CTNNB1] | 2.73 ± 0.48 | 2.68 ± 0.56 | – | –
FVLSLVKKHYRLQFYMFGWTHVTL [CDS2] | 2.99 ± 0.57 | 2.99 ± 0.67 | – | –
FSIGLGPMPWLVLSEIFPGGIRGR [SLC2A12] | 2.29 ± 0.67 | 2.51 ± 0.5 | – | –

Sequence | protein stability index [1] | protein stability index [2] | protein stability index [3] | protein stability index [4]
LHSISDSVLFLQEFGALMSNYSLP [TRIM29] | 2.41 ± 0.43 | 2.12 ± 0.26 | – | –
ATGDYLFEPHSGEDYSRDEDHIAH [SRPK2] | 5.23 ± 0.2 | 5.28 ± 0.27 | – | –
AFASFTSGVVRIWDLRDQSVVRDL [TLE6] | 2.36 ± 0.47 | 2.21 ± 0.35 | – | –
GAHTLVNHGYAEPAAGRELPPDMT [KCNA3] | 4.87 ± 0.13 | 4.73 ± 0.17 | – | –
LGSSRTPETVRMVLSNMEKLFCIP [IMPA1] | 2.08 ± 0.39 | 2.2 ± 0.26 | – | –
EADYEDDSKIAFLMQLQDIQYLTE [IQUB] | 3.3 ± 0.2 | 3.38 ± 0.57 | – | –
LKYFSDFRPYFTIHDSEFKEYTTR [DENND6A] | 2.19 ± 0.32 | 2.3 ± 0.2 | – | –
YFMIQALNQKTSEKMKKRKMSNSF [RHOBTB3] | 2.24 ± 0.08 | 2.37 ± 0.33 | – | –
PQVSAHHRSQESLTSQESEDTYL [TBC1D10A] | – | – | 5.4 ± 0.18 | 5.51 ± 0.16
GQREPGSLSRNNSFRRNVGRVLLA [FBXO34] | 3.11 ± 0.26 | 3.46 ± 0.21 | – | –
RQVPGSDPACYEFLWGPRALVETS [MAGEA3] | 3.11 ± 0.23 | 3.04 ± 0.37 | – | –
MTGRAMDPLPAAAVGAAAEAEADE [SNX8] | 5.52 ± 0.3 | 5.78 ± 0.12 | – | –
ELERARELKEKEATLCLEFLLQND [ANKRD44] | 3.94 ± 0.2 | 4.13 ± 0.35 | – | –
GDRPRWQRLLGEDKFQWLAGLAPP [ANKRD9] | 2.85 ± 0.35 | 2.7 ± 0.3 | – | –
SRRSGKTSAVLKAGRQSVSGRKNS [C6orf223] | 4.64 ± 0.28 | 4.78 ± 0.25 | – | –
PYLRGTIKMMQAVRQAFQDQDDRR [GFOD1] | 3.32 ± 0.17 | 3.56 ± 0.34 | – | –
MKEFSNQVVGQVNVEMDATPGIDL [KRT13] | 4.58 ± 0.16 | 4.44 ± 0.27 | – | –
KYEHELALRQTVEADVNGLRRVLD [KRT16] | 3.98 ± 0.15 | 4.09 ± 0.15 | – | –
CPLTPGPGKALGPAATMAVELHYE [C2CD2L] | 3.67 ± 0.14 | 3.76 ± 0.28 | – | –
GNKSDLKQLRQVTKEEGLALAREF [RIT1] | 4.31 ± 0.25 | 4.26 ± 0.12 | – | –
AALEAAGEGLNVIQQTTRYFSTPQ [NANOGP8] | 3.3 ± 0.16 | 3.31 ± 0.25 | – | –
LVRETDELRRNHCFQDFKEEKPQE [ELOA2] | 4.28 ± 0.24 | 4.41 ± 0.28 | – | –

Sequence | protein stability index [1] | protein stability index [2] | protein stability index [3] | protein stability index [4]
LFLMECEESPNGSEGACEKEKQSR [RHOBTB1] | 4.69 ± 0.44 | 4.83 ± 0.17 | – | –
HKQDGKAGLFSQEQYERNKSSSSS [TMEM40] | 5.3 ± 0.35 | 5.31 ± 0.15 | – | –
NMPKDHPVSCCLGLLLESLVPFIV [DYNC2LI1] | 2.53 ± 0.23 | 2.57 ± 0.5 | – | –
KRQAVNKAVANMQGEMDRKCKQVK [ZMYND11] | 4.6 ± 0.68 | 4.71 ± 0.45 | – | –
MKEQDLMCIKLHGVSKVGLRKIID [KLHL13] | 2.18 ± 0.53 | 2.15 ± 0.44 | – | –
RFPGRKQPGVHEEPVLKKWPKLKS [C22orf31] | 3.72 ± 0.49 | 3.57 ± 0.15 | – | –
ELQGLDYCKPTRLDLLLDMPPVSY [SPSB1] | 2.31 ± 0.14 | 2.38 ± 0.11 | – | –
HPLHPRHRKAVHLRTRGRTRGWVQ [C6orf223] | 3.15 ± 0.23 | 3.05 ± 0.49 | – | –
LGACVAPGGNLIVELARYLVDVRQ [DNAAF3] | 2.57 ± 0.44 | 2.12 ± 0.2 | – | –
PLPAGVPPLEDFEVLDGVEDAEGE [FKBP8] | 5.64 ± 0.26 | 5.44 ± 0.46 | – | –
NFIVNDSRKKPIWNVLMWTSLFLG [SOAT1] | 2.08 ± 0.14 | 2.2 ± 0.45 | – | –
AKVYVGVKQEIAEMRIPALNAYMK [NCF4] | 2.13 ± 0.2 | 2.32 ± 0.29 | – | –
SNIVIMLVGNKSDLRHLRAVPTDE [RAB11A] | 2.42 ± 0.34 | 2.25 ± 0.28 | – | –
GRNFILFIIFGTMEEMQNKAVVFF [HACD3] | 2.94 ± 1.4 | 2.36 ± 1.2 | – | –
RLCAPLFRNIKQEPFSARVLVLCV [SOAT1] | 2.73 ± 0.84 | 2.85 ± 1.4 | – | –
TWSNQTQNIQSWSNHSWNTQTWCT [NANOGP8] | 2.27 ± 0.15 | 2.27 ± 0.26 | – | –
SFLQNAVLAYVQASPVRTLSPPK [LRRC45] | – | – | 2.3 ± 0.32 | 2.1 ± 0.18
RESGAEPQEAVLQQLHQLPRGRLD [LRRC45] | 5.06 ± 0.3 | 5.16 ± 0.25 | – | –
RTMRLWNIEEIDEIPLVIKYKKAV [WDR88] | 2.3 ± 0.4 | 2.26 ± 0.31 | – | –
GSAVEVQTYQPPWKALSEFALQSD [ISL2] | 3.61 ± 0.4 | 3.73 ± 0.39 | – | –
KTKKLYIDSRARRNLGSINTELQD [SEC22B] | 3.87 ± 0.22 | 4.08 ± 0.21 | – | –
DHMRKKQHRKINPKNREYDRFYVI [ZNF277] | 2.21 ± 0.29 | 2.03 ± 0.28 | – | –
